Earlier results in article PMC11128129.

Biological target: PCSK9 (Homo sapiens) (UniProt Q8NBP7)
Sequence (Q8NBP7 153-692): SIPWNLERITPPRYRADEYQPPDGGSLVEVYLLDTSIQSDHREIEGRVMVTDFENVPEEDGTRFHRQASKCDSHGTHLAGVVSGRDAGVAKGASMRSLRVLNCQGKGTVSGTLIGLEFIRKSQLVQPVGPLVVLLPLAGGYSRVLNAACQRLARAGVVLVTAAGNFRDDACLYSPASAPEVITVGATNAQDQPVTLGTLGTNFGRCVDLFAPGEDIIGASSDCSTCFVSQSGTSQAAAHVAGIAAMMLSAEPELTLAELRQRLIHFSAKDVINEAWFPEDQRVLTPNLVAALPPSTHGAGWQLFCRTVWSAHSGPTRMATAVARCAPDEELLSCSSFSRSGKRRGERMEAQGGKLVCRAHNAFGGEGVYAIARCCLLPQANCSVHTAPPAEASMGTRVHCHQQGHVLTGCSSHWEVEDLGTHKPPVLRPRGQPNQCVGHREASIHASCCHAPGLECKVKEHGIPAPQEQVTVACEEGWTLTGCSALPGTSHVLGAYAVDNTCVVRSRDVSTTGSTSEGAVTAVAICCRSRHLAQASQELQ

Kd: 0.719 µM
Substance: LDLR (from UniProt P01130)
